The chains are these.
B1: Hairpin Ribozyme (parent)
chain: GUCCUCUUUCACGUGCGCGUGAAAGAGAGAAGUGAACCAGAGAAACACACGUUGUGGUAUAUUACCUGGUA

This series covers variants of B1. Kind of series: self-cleavage, relative activity (ratio to wild type); higher = more cleavage; co-transcriptional.
CUCCUCUUUCACGUGCGCGUGGAAGAGAGAAGUGAACCAGAGAAACACACGUUGUGGUAUAUUACCUGGUA [G1C A22G]: the self-cleavage was found to be 0.255. For AUCCUCUUUCACGUGCGCGUGAAAGAGAGAAGUGAACCAGAGAAACACACAUUGUGGUAUAUUACCUGGUA [G1A G51A] the value was 0.21; for AUCCUCUUUCACGUGCGCGUGAAAGAGAGAAGUGAACCAGAGAAACACACGUUGUGGUAUAUUACCCGGUA [G1A U67C], 0.178; for AUCCUCUUUCACGUGCGCGUGAAAGAGAGAAGUGAACCAGAGAAACACACGUUGUGUUAUAUUACCUGGUA [G1A G57U], 0.179. For AUCCUCUUUCACGUGCGCGUGAAAGAGAGAAGUGAACCAGAGAAACACACGUUGUGAUAUAUUACCUGGUA [G1A G57A] the value was 0.177. For AUCCUCUUUCACGUGCGCGUGAAAGAGAGAAGUGAACCAGAGAAACACACGUUGUGGUAUAUUACCUGUUA [G1A G69U], the self-cleavage turned out to be 0.235. On to CUCCUCUUUCACGUGCGCGUGAUAGAGAGAAGUGAACCAGAGAAACACACGUUGUGGUAUAUUACCUGGUA [G1C A23U], for which the self-cleavage came out at 0.197. Consider CUCCUCUUUCACGUGCGCGUGACAGAGAGAAGUGAACCAGAGAAACACACGUUGUGGUAUAUUACCUGGUA [G1C A23C], for which the self-cleavage is 0.103. Regarding CUCCUUUUUCACGUGCGCGUGAAAGAGAGAAGUGAACCAGAGAAACACACGUUGUGGUAUAUUACCUGGUA [G1C C6U], the self-cleavage came out at 0.249. With CUCCUGUUUCACGUGCGCGUGAAAGAGAGAAGUGAACCAGAGAAACACACGUUGUGGUAUAUUACCUGGUA [G1C C6G], the self-cleavage turned out to be 0.249.

As to CUCCUCUUUCACGUGCGCGUGAAAGAGAGAAGUGAACCAGGGAAACACACGUUGUGGUAUAUUACCUGGUA [G1C A41G], the self-cleavage came out at 0.129. With CUCCUCUUUCACGUGCGCGUGAAAGAGAGAAGUGAACCAGAGAACCACACGUUGUGGUAUAUUACCUGGUA [G1C A45C], the self-cleavage was 0. Take CUCCUCUUUCACGUGCGCGUGAAAGAGAGAAGUGAACCAGAGAAGCACACGUUGUGGUAUAUUACCUGGUA [G1C A45G]: the self-cleavage worked out at 0.0824. For AUCCCCUUUCACGUGCGCGUGAAAGAGAGAAGUGAACCAGAGAAACACACGUUGUGGUAUAUUACCUGGUA [G1A U5C], the self-cleavage came out at 0.269. As to CUCCUCUUUCACGUGCGCGUGAAAGAGAGAAGUGAACCAGAGAAACACAAGUUGUGGUAUAUUACCUGGUA [G1C C50A], the self-cleavage was 0.147. For the variant CUCCUCUUUCACGUGCGCGUGAAAGAGAGAAGUGAACCAGAGAAACACAUGUUGUGGUAUAUUACCUGGUA [G1C C50U], the self-cleavage was 0.321. For the variant CUCCUCUUUCUCGUGCGCGUGAAAGAGAGAAGUGAACCAGAGAAACACACGUUGUGGUAUAUUACCUGGUA [G1C A11U], the self-cleavage worked out at 0.179. On to AUCCUCUUUCACGUGCGCGUGAAAGAGAGAAGUGAACCAGAUAAACACACGUUGUGGUAUAUUACCUGGUA [G1A G42U], for which the self-cleavage amounted to 0.0643. On to CUCCUCUUUCACGUGCGCGUGAAAGAGAGAAGUGAACCAGAGAAACGCACGUUGUGGUAUAUUACCUGGUA [G1C A47G], for which the self-cleavage turned out to be 0.13. For CUCCUCUUUCACGUGCGCGUGAAAGAGAGAAGUGAACCAGAGAAACUCACGUUGUGGUAUAUUACCUGGUA [G1C A47U], the self-cleavage is 0.152. Turning to CUCCUCUUUCACGUGGGCGUGAAAGAGAGAAGUGAACCAGAGAAACACACGUUGUGGUAUAUUACCUGGUA [G1C C16G], the self-cleavage stood at 0.238. With CUCCUCUUUCACGUGCGCGUGAAAGAGAGAAGUGAACCAGAGAAACACACGUUGUGGUGUAUUACCUGGUA [G1C A59G], the self-cleavage worked out at 0.0434. Then CUCCUCUUUCACGUGCGCGUGAAAGAGAGAAGUGAACCAGAGAAACACACGUUGUGGUUUAUUACCUGGUA [G1C A59U], with 0.114; and AUCCUCUUUCACGUGCGCGUGAAAGAGAGAAGUGAACCAGAGAAACACACGUUGUGGUAUAUUACCUCGUA [G1A G68C], with 0.181; and CUCCUCUUUCACAUGCGCGUGAAAGAGAGAAGUGAACCAGAGAAACACACGUUGUGGUAUAUUACCUGGUA [G1C G13A], with 0.0408.

On to CUCCUCUUUCACCUGCGCGUGAAAGAGAGAAGUGAACCAGAGAAACACACGUUGUGGUAUAUUACCUGGUA [G1C G13C], for which the self-cleavage was determined as 0.179. Then CUCCUCUUUCACUUGCGCGUGAAAGAGAGAAGUGAACCAGAGAAACACACGUUGUGGUAUAUUACCUGGUA [G1C G13U], with 0.225. As for CUACUCUUUCACGUGCGCGUGAAAGAGAGAAGUGAACCAGAGAAACACACGUUGUGGUAUAUUACCUGGUA [G1C C3A], the self-cleavage turned out to be 0.257. Consider CUCCUCUUUCACGUGCGCGUGAAAGAGAGGAGUGAACCAGAGAAACACACGUUGUGGUAUAUUACCUGGUA [G1C A30G], for which the self-cleavage came to 0.322. As for AUCCUCUUUCACGUGCGCGUGAAAGAGAGAAGUGAACCAGAGAAACACACGUUGUGGUAUAUCACCUGGUA [G1A U63C], the self-cleavage stood at 0.166. Turning to CUCCUCUUUCACGUGCGCGUGAAAGAGGGAAGUGAACCAGAGAAACACACGUUGUGGUAUAUUACCUGGUA [G1C A28G], the self-cleavage turned out to be 0.167.

In the case of AUCCUCUUUCACGUCCGCGUGAAAGAGAGAAGUGAACCAGAGAAACACACGUUGUGGUAUAUUACCUGGUA [G1A G15C], the self-cleavage turned out to be 0.287. Regarding CUCCUCUUUCACGUGCGCGUGAAAGAGAGAAGUGAACCAGAGAAACACACGUUGUGGUAUAUUAACUGGUA [G1C C65A], the self-cleavage is 0.141. For CUCCUCUUUCACGUGCGCGUGAAAGAGAGAAGUGAACCGGAGAAACACACGUUGUGGUAUAUUACCUGGUA [G1C A39G] the value was 0.146; for CUCCUCUUUCACGUGCGCGUGAAAGAGAGAAGUGAACCCGAGAAACACACGUUGUGGUAUAUUACCUGGUA [G1C A39C], 0.225. For CUCCUCUUUCACGUGCGCGUGAAAGAGAGAAGUGAACCAGAGAAAGACACGUUGUGGUAUAUUACCUGGUA [G1C C46G] the value was 0.307; for CUCCUCUUUCACGUGCGCGUGAAAGAGAGAAGUGAACCAGAGAAAUACACGUUGUGGUAUAUUACCUGGUA [G1C C46U], 0.0993; for CUCCUCUUUCACGUGCGCGUGAAAGAGAGAAGUGAACCAGAGAAAAACACGUUGUGGUAUAUUACCUGGUA [G1C C46A], 0.208.

The values are drawn from the RNAGym collection of RNA variant scans (doi:10.7554/elife.80360).
